Reference: patent WO2013157102A1 (dated 2013)
Where a chain is given by its changes, count along the chain named.

Legend:
[1] = target: T1, mucin subtype 5AC expressed on BxPC3 cells (human, UniProt P98088 28-5654); experiment: flow cytometry on BxPC3 cells expressing mucin subtype 5AC, 20 ug/mL antibody, Alexa Fluor 488 anti-human IgG
T1 construct: whole, on cells; also called mucin 5AC; MUC5AC

[2] = target: T1, mucin subtype 5AC expressed on BxPC3 …; experiment: flow cytometry on BxPC3 cells expressing mucin subtype 5AC, 20 ug/mL antibody, Alexa Fluor 488 anti-mouse IgG; mouse antibody is the positive reference

B1: humanized antibody 1 (antibody, V domains shown)
VH: QVQLVESGGGVVQPGRSLRLSCSSSGFIFSNYGMSWVRQAPEKRLEWVATISNSGRYTYFPDSVKGRFTISRDNSKNTLFLQMDSLRPEDTGVYFCARHLDYANYDAMDYWGQGTPVTVSS
VL: DIVMTQSPNSLAVSLGERATINCRASKSVTTSDFSYMHWYQQKPGQPPKLLIYLASNLESGVPDRFSGSGSGTDFTLTISSLQAEDVAVYYCQHSREFPWTFGQGTKLEIK
notes: Expressed transiently in HEK293 cells and detected with anti-human IgG; also called VH-1 combined with VL-1; mucin subtype 5AC-specific humanized antibody
Question: Does B1 bind [1]?
Answer: Result: binds

B2: humanized antibody 2 (antibody, V domains shown)
VH: EVQLLESGGGLVQPGGSLRLSCAASGFTFSNYGMSWVRQAPGKGLEWVSTISNSGRYTYFPDSVKGRFTISRDNSKNTLYLQMNSLRAEDTAVYYCAKHLDYANYDAMDYWGQGTLVTVSS
VL: DIVMTQTPLSSPVTLGQPASISCRASKSVTTSDFSYMHWLQQRPGQPPRLLIYLASNLESGVPDRFSGSGAGTDFTLKISRVEAEDVGVYYCQHSREFPWTFGQGTKVEIK
notes: Detected with anti-human IgG; also called VH-4 combined with VL-5; mucin subtype 5AC-specific humanized antibody
Question: Does B2 bind [1]?
Answer: Result: binds

B3: humanized antibody 6 (antibody, V domains shown)
VH: B2 VH with L5V, Q13K, S75A, T78S, K98R
VL: B2 VL
notes: Detected with anti-human IgG; also called VH-5 combined with VL-5; mucin subtype 5AC-specific humanized antibody
Question: Does B3 bind [1]?
Answer: Result: binds

B4: humanized antibody 7 (antibody, V domains shown)
VH: B2 VH with L5V, L11V, Q13R, S30D, S75A, T78S, V93L, Y95H, K98R
VL: B2 VL
notes: Detected with anti-human IgG; also called VH-6 combined with VL-5; mucin subtype 5AC-specific humanized antibody
Question: Does B4 bind [1]?
Answer: Result: binds

B5: humanized antibody 10 (antibody, V domains shown)
VH: B2 VH
VL: B2 VL with S11L, P12S, L15P, L40Y, Q41L, R43K, R49Q, A71S
notes: Detected with anti-human IgG; also called VH-4 combined with VL-7; mucin subtype 5AC-specific humanized antibody
Question: Does B5 bind [1]?
Answer: Result: binds

B6: mucin subtype 5AC-specific mouse antibody (antibody, V domains shown)
VH: EVKLVESGGVLVKSGGSLKLSCAVSGFTFSNYGMSWVRQTPEKRLEWVATISNSGRYTYFPDSVKGRFAISRDNAKNNLYLQMSSLRSADTALYYCTRHLDYANYDAMDYWGQGTSVTVSS
VL: DIVLTQSPASLAVSLGQRATISCRASKSVTTSDFSYMHWYQQKPGQPPKLLLYLASNLESGVPDRFSGSGSGTDFTLNIHPVEEEDAATYYCQHSREFPWTFGGGTKLEIK
notes: Detected with anti-mouse IgG
Question: Does B6 bind [2]?
Answer: Result: binds

B7: humanized antibody 4 (antibody, V domains shown)
VH: B2 VH
VL: DIQMTQSPSSLAVSLGDRVTITCRASKSVTTSDFSYMHWYQQKPGLAPKLLIYLASNLESGVPSRFSGSGSGTDFTFTISSLQPEDIATYYCQHSREFPWTFGQGTKVEVK
notes: also called VH-4 combined with VL-3; mucin subtype 5AC-specific humanized antibody
Question: Does B7 bind [1]?
Answer: Result: binds

B8: humanized antibody 3 (antibody, V domains shown)
VH: B2 VH
VL: B7 VL with S10T, L46K, I52M, S67I, D74E, F77L, E85D, I87F
notes: Detected with anti-human IgG; also called VH-4 combined with VL-2; mucin subtype 5AC-specific humanized antibody
Question: Does B8 bind [1]?
Answer: Result: binds

B9: humanized antibody 5 (antibody, V domains shown)
VH: B2 VH
VL: B7 VL with K43T, L46K, F75Y, V108L, E109Q, V110I, K111T
notes: Detected with anti-human IgG; also called VH-4 combined with VL-4; mucin subtype 5AC-specific humanized antibody
Question: Does B9 bind [1]?
Answer: Result: binds

B10: humanized antibody 9 (antibody, V domains shown)
VH: QVQLQESGPGLVRPSQSLKLTCTVSGSTFSNYGMSWVRQTPEKRLEWIGTISNSGRYTYFPDSVKGRVTMLVDTSKNQFSLQMSSVTAADTAVYYCARHLDYANYDAMDYWGQGSLVTVSS
VL: B2 VL
notes: Detected with anti-human IgG; also called VH-3 combined with VL-5; mucin subtype 5AC-specific humanized antibody
Question: Does B10 bind [1]?
Answer: Result: binds
